Assay results as given in paper PMC314469, “Protein Interaction Networks by Proteome Peptide Scanning” (PLoS Biology, 2004).

T1: Boi1 SH3 (BOI1_YEAST), P38041
T1 chain: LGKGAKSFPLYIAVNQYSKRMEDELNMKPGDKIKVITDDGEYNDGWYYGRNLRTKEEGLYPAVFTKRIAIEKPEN

T2: Boi2 SH3 (BOI2_YEAST), P39969
T2 chain: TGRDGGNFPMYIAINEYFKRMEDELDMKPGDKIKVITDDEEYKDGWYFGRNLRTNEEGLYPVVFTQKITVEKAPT

T3: Myo5 SH3 (MYO5_YEAST), Q04439
T3 chain: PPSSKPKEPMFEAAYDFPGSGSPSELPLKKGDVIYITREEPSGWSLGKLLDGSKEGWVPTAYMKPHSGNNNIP

T4: Rvs167 SH3 (RV167_YEAST), P39743
T4 chain: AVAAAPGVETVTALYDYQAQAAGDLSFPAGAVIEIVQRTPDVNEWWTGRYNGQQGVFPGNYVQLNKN

T5: Yfr024 SH3 (LSB3_YEAST), P43603
T5 chain: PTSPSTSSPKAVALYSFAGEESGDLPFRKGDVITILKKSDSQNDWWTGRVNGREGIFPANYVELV

T6: Yhr016c SH3 (YSC84_YEAST), P32793
T6 chain: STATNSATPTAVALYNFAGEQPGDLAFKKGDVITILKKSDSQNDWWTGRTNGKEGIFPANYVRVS


Columns and labels:
Test in all cases: SPOT array
[1] = molecular target: T1, Boi1 SH3 (BOI1_YEAST), P38041
[2] = molecular target: T2, Boi2 SH3 (BOI2_YEAST), P39969
[3] = molecular target: T3, Myo5 SH3 (MYO5_YEAST), Q04439
[4] = molecular target: T4, Rvs167 SH3 (RV167_YEAST), P39743
[5] = molecular target: Sho1 SH3 (SHO1_YEAST), P40073
[6] = molecular target: T5, Yfr024 SH3 (LSB3_YEAST), P43603
[7] = molecular target: T6, Yhr016c SH3 (YSC84_YEAST), P32793

Sequence of Sho1 SH3 (SHO1_YEAST), P40073 (P40073 295-366): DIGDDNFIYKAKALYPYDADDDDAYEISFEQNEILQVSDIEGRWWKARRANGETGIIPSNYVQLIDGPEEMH

Binder | normalised SPOT signal, Boehringer light units (BLU); mean over the file's lines of this peptide [1] | normalised SPOT signal, Boehringer light units (BLU); mean over the file's lines of this peptide [2] | normalised SPOT signal, Boehringer light units (BLU); mean over the file's lines of this peptide [3] | normalised SPOT signal, Boehringer light units (BLU); mean over the file's lines of this peptide [4] | normalised SPOT signal, Boehringer light units (BLU); mean over the file's lines of this peptide [5] | normalised SPOT signal, Boehringer light units (BLU); mean over the file's lines of this peptide [6] | normalised SPOT signal, Boehringer light units (BLU); mean over the file's lines of this peptide [7]
YAVGRIVPDSPTYD [YBL035C 295-308] | 87.3 | 33.2 | 189 | 127 | 39.9 | 159 | 257
WRWARDTPRAPGLH [YCR020C 147-160] | 46.7 | 3730 | 2100 | 1330 | 2030 | 7740 | 1970
YSPWKLSPLLPILY [YCR001W 27-40] | 88.3 | 99.3 | 176 | 66.5 | 63.6 | 514 | 40.4
YGDNKKNPESPESV [YDL133W 210-223] | 79.4 | 8.4 | 147 | 3.3 | 25.3 | 13.3 | 19.5
YAVDKIMPPTPAKK [YAL024C 308-321] | 44.9 | 2 | 110 | 71.5 | 112 | 512 | 22
YPNGRTLPPVPTQV [YER064C 178-191] | -0 | 18.3 | 172 | 922 | 17400 | 1460 | 505
YGSEKGSPAGPSAV [YDR429C 58-71] | 65.1 | 40 | 50.3 | 28.6 | 46.4 | 13.4 | 8.8

More lines, now with the values ahead:

normalised SPOT signal, Boehringer light units (BLU); mean over the file's lines of this peptide [1] | normalised SPOT signal, Boehringer light units (BLU); mean over the file's lines of this peptide [2] | normalised SPOT signal, Boehringer light units (BLU); mean over the file's lines of this peptide [3] | normalised SPOT signal, Boehringer light units (BLU); mean over the file's lines of this peptide [4] | normalised SPOT signal, Boehringer light units (BLU); mean over the file's lines of this peptide [5] | normalised SPOT signal, Boehringer light units (BLU); mean over the file's lines of this peptide [6] | normalised SPOT signal, Boehringer light units (BLU); mean over the file's lines of this peptide [7] | Binder
64 | 26.3 | 166 | 63.3 | 39.6 | 131 | 15.4 | YEGPRGAPGMPEML [YJR016C 463-476]
59.5 | 46.2 | 80.6 | 20.5 | 59.7 | 147 | 22.5 | YDLTRFLPNHPGGQ [YML054C 114-127]
115 | 1320 | 81.2 | 892 | 132 | 3220 | 1270 | WSQMRMNPTNPDWI [YPR074C 45-58]
410 | 58.3 | 508 | 220 | 139 | 244 | 92.2 | YFVKKIRPGNPLTK [YJL149W 279-292]
222 | 44.9 | 188 | 176 | 19.5 | 113 | 27.8 | YILPKTDPRSPYYI [YPR115W 96-109]
12400 | 48.9 | 961 | 2750 | 28200 | 2960 | 538 | YKNRKNLPTIPIRL [YGL085W 139-152]
